The results in this text go back to patent US20230151111A1.

Assay [1] concerns the target human NT5E(1-552)-his (human) (UniProt P21589). Briefly: BLI (Fortebio), antibody on Protein A sensor, NT5E(1-552)-his 3.125-200 nM, 37 C.
Assay [2] concerns the target human NT5E-Biotin (human) (UniProt P21589). Nature of the assay: ELISA, NT5E-biotin on streptavidin; antibody 0.333 ug/mL diluted 1:729. For orientation: An ELISA detects its analyte on a solid surface through an enzyme-linked reagent.
For assay [3] the target is unchanged. Briefly: ELISA, NT5E-biotin on streptavidin; antibody 0.333 ug/mL diluted 1:27.
The target is the same in assay [4]. Nature of the assay: ELISA, NT5E-biotin on streptavidin.
The target is the same in assay [5]. Nature of the assay: ELISA, NT5E-biotin on streptavidin; antibody 0.333 ug/mL diluted 1:3.
Assay [6] has the same target. Briefly: ELISA, NT5E-biotin on streptavidin; antibody 0.333 ug/mL diluted 1:81.
For assay [7] the target is unchanged. Briefly: ELISA, NT5E-biotin on streptavidin; antibody 0.333 ug/mL diluted 1:243.
For assay [8] the target is unchanged. Nature of the assay: ELISA, NT5E-biotin on streptavidin; antibody 0.333 ug/mL.
Assay [9] has the same target. Briefly: ELISA, NT5E-biotin on streptavidin; antibody 0.333 ug/mL diluted 1:9.
For assay [10], the target named is human PD-1-mFc-biotin (human) (UniProt Q15116). Briefly: competitive ELISA, competitor coated PD-L1-mFc; antibody 5 ug/mL diluted 1:27.
For assay [11], the target named is PD-1-mFc (human) (UniProt Q15116). Briefly: ELISA, PD-1-mFc coated; antibody 1 ug/mL diluted 1:243.
Assay [12] concerns the target human PD-1-mFc-biotin (human) (UniProt Q15116). Briefly: competitive ELISA, competitor coated PD-L1-mFc; antibody 5 ug/mL diluted 1:3.
The target in assay [13] is PD-1-mFc (human) (UniProt Q15116). Briefly: ELISA, PD-1-mFc coated; antibody 1 ug/mL diluted 1:27.
Assay [14] has as its target human PD-1-mFc-biotin (human) (UniProt Q15116). Nature of the assay: competitive ELISA, competitor coated PD-L1-mFc; antibody 5 ug/mL diluted 1:9.
Assay [15] shares this target. Briefly: competitive ELISA, competitor coated PD-L1-mFc; antibody 5 ug/mL diluted 1:729.
Assay [16] concerns the target PD-1-mFc (human) (UniProt Q15116). Nature of the assay: ELISA, PD-1-mFc coated; antibody 1 ug/mL.
The target in assay [17] is human PD-1-mFc-biotin (human) (UniProt Q15116). Nature of the assay: competitive ELISA, competitor coated PD-L1-mFc; antibody 5 ug/mL diluted 1:81.
The target is the same in assay [18]. Briefly: competitive ELISA, competitor coated PD-L1-mFc; antibody 5 ug/mL.
Assay [19] addresses PD-1-mFc (human) (UniProt Q15116). Nature of the assay: ELISA, PD-1-mFc coated; antibody 1 ug/mL diluted 1:729.
The target is the same in assay [20]. Briefly: ELISA, PD-1-mFc coated; antibody 1 ug/mL diluted 1:81.
Assay [21] concerns the target human PD-1-mFc-biotin (human) (UniProt Q15116). Briefly: competitive ELISA, competitor coated PD-L1-mFc; antibody 5 ug/mL diluted 1:243.
The target in assay [22] is PD-1-mFc (human) (UniProt Q15116). Briefly: ELISA, PD-1-mFc coated; antibody 1 ug/mL diluted 1:9.
Assay [23] deals with human PD-1-mFc-biotin (human) (UniProt Q15116). Nature of the assay: competitive ELISA, blocking of PD-1-mFc-biotin binding to coated PD-L1-mFc.
Assay [24] addresses PD-1-mFc (human) (UniProt Q15116). Nature of the assay: ELISA, PD-1-mFc coated; antibody 1 ug/mL diluted 1:3.

“And” between values parts separate entries of the source, which are not always exact repeats. Identical values can stand only once.

Sequence of human NT5E(1-552)-his (human) (P21589 27-552 limits assumed): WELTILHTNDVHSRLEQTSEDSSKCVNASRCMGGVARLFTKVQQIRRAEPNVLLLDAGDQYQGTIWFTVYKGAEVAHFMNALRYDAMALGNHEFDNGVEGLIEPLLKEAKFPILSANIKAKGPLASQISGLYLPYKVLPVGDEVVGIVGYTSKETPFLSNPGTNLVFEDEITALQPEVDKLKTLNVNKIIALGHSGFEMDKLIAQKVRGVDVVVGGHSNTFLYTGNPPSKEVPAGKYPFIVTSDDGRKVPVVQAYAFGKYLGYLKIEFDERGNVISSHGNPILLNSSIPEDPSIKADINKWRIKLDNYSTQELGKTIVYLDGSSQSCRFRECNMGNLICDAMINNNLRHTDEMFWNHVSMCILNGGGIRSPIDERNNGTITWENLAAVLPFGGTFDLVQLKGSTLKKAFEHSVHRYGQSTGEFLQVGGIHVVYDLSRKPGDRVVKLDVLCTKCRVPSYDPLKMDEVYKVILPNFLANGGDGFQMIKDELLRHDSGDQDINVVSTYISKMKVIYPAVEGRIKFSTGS
Sequence of human NT5E-Biotin (human) (P21589 27-552 limits assumed, form in doubt): as the sequence (P21589 27-552 limits assumed) above
Sequence of human PD-1-mFc-biotin (human) (Q15116 other isoform, or with tags, fused parts or gaps limits assumed): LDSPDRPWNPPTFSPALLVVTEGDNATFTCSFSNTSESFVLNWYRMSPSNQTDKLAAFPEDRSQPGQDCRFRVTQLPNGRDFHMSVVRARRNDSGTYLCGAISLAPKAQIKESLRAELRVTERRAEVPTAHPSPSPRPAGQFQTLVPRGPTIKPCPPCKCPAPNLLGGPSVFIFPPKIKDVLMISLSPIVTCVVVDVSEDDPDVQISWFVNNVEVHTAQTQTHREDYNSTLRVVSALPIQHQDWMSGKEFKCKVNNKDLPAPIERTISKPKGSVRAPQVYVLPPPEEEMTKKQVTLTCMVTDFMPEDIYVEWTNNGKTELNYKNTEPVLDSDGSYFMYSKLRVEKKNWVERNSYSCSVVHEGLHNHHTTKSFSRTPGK
Sequence of PD-1-mFc (human) (Q15116 other isoform, or with tags, fused parts or gaps limits assumed): as above

For MEDI9447 (antibody), the Kd in [1] is 0.104 nM. In assay [1], this substance gave a koff of 2.44e-05 s⁻¹. Besides, in assay [1], the kon amounted to 234000 M⁻¹ s⁻¹. Also, the OD450 is 0.288 OD and 0.305 OD in assay [2]; 1.73 OD and 1.81 OD in [3]; 2.43 OD and 2.53 OD in [5]; 1.09 OD and 1.17 OD in assay [6]; 0.547 OD and 0.587 OD in assay [7]; 2.46 OD and 2.57 OD in assay [8]. Further, the OD450 in [9] was 2.22 OD and 2.35 OD. The substance further yielded an EC50 in assay [4] of 0.042 nM.
Consider nivolumab (antibody), for which the OD450 in assay [10] was 1.01 OD and 0.875 OD; with PD-1-mFc (human) [11] it was 0.98 OD; in assay [12] it was 0.075 OD and 0.076 OD; in the assay with PD-1-mFc (human) [13], 2.2 OD and 2.22 OD; in [14], 0.107 OD and 0.1 OD; in [15] it was 1.35 OD and 1.28 OD. The OD450 is 2.39 OD and 2.47 OD with PD-1-mFc (human) [16]; 1.24 OD and 1.15 OD in assay [17]; 0.057 OD in assay [18]; 0.521 OD and 0.498 OD with PD-1-mFc (human) [19]; 1.71 OD with PD-1-mFc (human) [20]; 1.39 OD and 1.21 OD in assay [21]. The OD450 is 2.52 OD and 2.57 OD with PD-1-mFc (human) [22]; 2.44 OD in the assay with PD-1-mFc (human) [24]. This substance also displayed an EC50 in assay [23] of 1.7 nM.

One may read the Kd as the concentration at which binding is half-saturated. As a reminder, the koff is the rate constant with which the complex falls apart. Higher therefore signals fast dissociation. The kon is the rate constant with which the complex forms. High values mean faster complex formation, low ones slower complex formation. In general, EC50 refers to the midpoint of the concentration-response curve. The low end stands for greater potency, the high end for weaker potency.
